The chains are these.
T1: LRP6E1E2 (UniProt O75581 20-630)
T1 construct: domain: E1E2; also called LRP6 E1E2 domains
T1 sequence (looked up): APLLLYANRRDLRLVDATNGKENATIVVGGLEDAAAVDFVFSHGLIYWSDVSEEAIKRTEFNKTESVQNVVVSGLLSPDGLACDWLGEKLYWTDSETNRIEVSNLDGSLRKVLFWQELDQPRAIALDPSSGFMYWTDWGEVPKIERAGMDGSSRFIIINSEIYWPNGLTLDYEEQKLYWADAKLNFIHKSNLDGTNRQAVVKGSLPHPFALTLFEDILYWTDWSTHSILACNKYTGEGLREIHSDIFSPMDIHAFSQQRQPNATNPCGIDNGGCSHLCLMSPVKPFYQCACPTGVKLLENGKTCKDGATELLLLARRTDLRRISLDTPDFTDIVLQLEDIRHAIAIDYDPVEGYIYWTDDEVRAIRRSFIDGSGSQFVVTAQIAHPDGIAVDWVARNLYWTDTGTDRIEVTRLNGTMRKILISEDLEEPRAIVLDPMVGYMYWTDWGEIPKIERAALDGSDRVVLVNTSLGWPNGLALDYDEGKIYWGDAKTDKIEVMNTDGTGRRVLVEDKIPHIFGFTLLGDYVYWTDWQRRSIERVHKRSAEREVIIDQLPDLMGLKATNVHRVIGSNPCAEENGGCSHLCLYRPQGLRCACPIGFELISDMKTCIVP

B1: F1:10:L1:Fc (bispecific antibody)
chain: EVQLVESGGGLVQPGGSLRLSCAASGFTFSHYTLSWVRQAPGKGLEWVSVISGDGSYTYYADSVKGRFTISSDNSKNTLYLQMNSLRAEDTAVYYCARNFIKYVFANWGQGTLVTVSSGGGGSGGGGSGGGGSDIELTQPPSVSVAPGQTARISCSGDNIGSFYVHWYQQKPGQAPVLVIYDKSNRPSGIPERFSGSNSGNTATLTISGTQAEDEADYYCQSYANTLSLVFGGGTKLTVLGSGSGGSGSGDVKLVESGGGLVKLGGSLRLSCAASGFSFSTSYMSWVRQTPEKRLELVAAINLNGGSTYYSDTVKGRFTISRDNAKNTLYLQMSSLKSEDTAFYYCASELAGYGTPFAYWGQGTLVTVSAGSAASGSSGGSSSGADIVLTQSPATLSVTPGDSVSLSCKASQSISYNLHWYQQKSHESPRLLIKYTSQSISGIPSRFSGSGSGTDFTLTINNVETEDFGMYFCQQSNSWPLTFGAGTKLEVKGSGSGDKTHTCPPCPAPEAAGGPSVFLFPPKPKDTLMISRTPEVTCVVVDVSHEDPEVKFNWYVDGVEVHNAKTKPREEQYNSTYRVVSVLTVLHQDWLNGKEYKCKVSNKALGAPIEKTISKAKGQPREPQVYTLPPSREEMTKNQVSLTCLVKGFYPSDIAVEWESNGQPENNYKTTPPVLDSDGSFFLYSKLTVDKSRWQQGNVFSCSVMHEALHNHYTQKSLSLSPGK
notes: 2:2 tandem scFv-Fc
B2: F1:5:L1:Fc (bispecific antibody)
chain: EVQLVESGGGLVQPGGSLRLSCAASGFTFSHYTLSWVRQAPGKGLEWVSVISGDGSYTYYADSVKGRFTISSDNSKNTLYLQMNSLRAEDTAVYYCARNFIKYVFANWGQGTLVTVSSGGGGSGGGGSGGGGSDIELTQPPSVSVAPGQTARISCSGDNIGSFYVHWYQQKPGQAPVLVIYDKSNRPSGIPERFSGSNSGNTATLTISGTQAEDEADYYCQSYANTLSLVFGGGTKLTVLGSGSGDVKLVESGGGLVKLGGSLRLSCAASGFSFSTSYMSWVRQTPEKRLELVAAINLNGGSTYYSDTVKGRFTISRDNAKNTLYLQMSSLKSEDTAFYYCASELAGYGTPFAYWGQGTLVTVSAGSAASGSSGGSSSGADIVLTQSPATLSVTPGDSVSLSCKASQSISYNLHWYQQKSHESPRLLIKYTSQSISGIPSRFSGSGSGTDFTLTINNVETEDFGMYFCQQSNSWPLTFGAGTKLEVKGSGSGDKTHTCPPCPAPEAAGGPSVFLFPPKPKDTLMISRTPEVTCVVVDVSHEDPEVKFNWYVDGVEVHNAKTKPREEQYNSTYRVVSVLTVLHQDWLNGKEYKCKVSNKALGAPIEKTISKAKGQPREPQVYTLPPSREEMTKNQVSLTCLVKGFYPSDIAVEWESNGQPENNYKTTPPVLDSDGSFFLYSKLTVDKSRWQQGNVFSCSVMHEALHNHYTQKSLSLSPGK
notes: 2:2 tandem scFv-Fc
B3: L1:15:F1:Fc (bispecific antibody)
chain: DVKLVESGGGLVKLGGSLRLSCAASGFSFSTSYMSWVRQTPEKRLELVAAINLNGGSTYYSDTVKGRFTISRDNAKNTLYLQMSSLKSEDTAFYYCASELAGYGTPFAYWGQGTLVTVSAGSAASGSSGGSSSGADIVLTQSPATLSVTPGDSVSLSCKASQSISYNLHWYQQKSHESPRLLIKYTSQSISGIPSRFSGSGSGTDFTLTINNVETEDFGMYFCQQSNSWPLTFGAGTKLEVKGSGSGGSGSGGSSGGEVQLVESGGGLVQPGGSLRLSCAASGFTFSHYTLSWVRQAPGKGLEWVSVISGDGSYTYYADSVKGRFTISSDNSKNTLYLQMNSLRAEDTAVYYCARNFIKYVFANWGQGTLVTVSSGGGGSGGGGSGGGGSDIELTQPPSVSVAPGQTARISCSGDNIGSFYVHWYQQKPGQAPVLVIYDKSNRPSGIPERFSGSNSGNTATLTISGTQAEDEADYYCQSYANTLSLVFGGGTKLTVLGSGSGDKTHTCPPCPAPEAAGGPSVFLFPPKPKDTLMISRTPEVTCVVVDVSHEDPEVKFNWYVDGVEVHNAKTKPREEQYNSTYRVVSVLTVLHQDWLNGKEYKCKVSNKALGAPIEKTISKAKGQPREPQVYTLPPSREEMTKNQVSLTCLVKGFYPSDIAVEWESNGQPENNYKTTPPVLDSDGSFFLYSKLTVDKSRWQQGNVFSCSVMHEALHNHYTQKSLSLSPGK
notes: 2:2 tandem scFv-Fc

The target of the assay is T1, LRP6E1E2. Kind of assay: BLI (Octet), FIG. 11B. (In general: In BLI a coated tip is dipped into the sample, and binding shifts an interference pattern.)
As for B1, the binding result is given as “binds”. As for B2, the binding result is “binds”. In the case of B3, the binding result is recorded as “binds”.

These data come from patent publication US20210292422A1 (SURROZEN, published 2021).
